Measurements: paper PMC9288512 (2022)

Assays:
[1] = molecular target: T1, recombinant human proprotein convertase subtilisin/kexin 9 (hPCSK9), his-tagged (human, UniProt Q8NBP7 153-692); assay: SPR
[2] = molecular target: T1, recombinant human proprotein convertase …; assay: SPR; remark: listed apart in the source

T1 sequence (Q8NBP7 153-692): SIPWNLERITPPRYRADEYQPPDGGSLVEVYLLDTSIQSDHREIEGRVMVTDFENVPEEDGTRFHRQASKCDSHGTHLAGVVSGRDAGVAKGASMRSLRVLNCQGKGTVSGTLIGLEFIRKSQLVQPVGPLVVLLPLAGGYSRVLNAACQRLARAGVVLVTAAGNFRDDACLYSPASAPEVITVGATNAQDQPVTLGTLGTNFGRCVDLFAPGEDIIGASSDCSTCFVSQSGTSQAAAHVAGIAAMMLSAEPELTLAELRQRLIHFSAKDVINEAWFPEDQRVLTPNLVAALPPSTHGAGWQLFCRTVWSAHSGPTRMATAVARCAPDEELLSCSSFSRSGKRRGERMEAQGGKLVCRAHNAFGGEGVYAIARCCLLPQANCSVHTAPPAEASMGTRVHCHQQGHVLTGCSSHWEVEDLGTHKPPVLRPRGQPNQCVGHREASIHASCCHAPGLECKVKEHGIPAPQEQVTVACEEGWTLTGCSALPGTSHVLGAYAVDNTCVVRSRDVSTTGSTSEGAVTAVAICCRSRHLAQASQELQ

| koff [1] [s⁻¹] | Kd [2] [nM] | Binder |
| --- | --- | --- |
| 0.000174 | ~5.01 | VHH-B11 (monovalent camelid nanobody against hPCSK9) (VHH) VHH: QVQLQESGGGSVQAGGSLRLSCTVSGYTYSSNCMGWFRQAPGKEHEGVASIYIGGGSTYYADSVKGRFTISQDNAKNTVYLQMNSLKPEDTAMYYCAVGCQGLVDFGYWDQGTQVTVSS |
| 0.00123 | 0.689 | Llama VHH-human IgG4 hinge linker-IgG4 Fc chimeric HcAb (VHH-B11-Fc) (Fc fusion) QVQLQESGGGSVQAGGSLRLSCTVSGYTYSSNCMGWFRQAPGKEHEGVASIYIGGGSTYYADSVKGRFTISQDNAKNTVYLQMNSLKPEDTAMYYCAVGCQGLVDFGYWDQGTQVTVSS |
